Assay results reported in the supplement of paper PMC11316812.
± gives the standard deviation of the averaged measurements.

What was measured:
MCF7 = assay: percentage of EdU-negative (G0-arrested) nuclei per well, 72 h; higher = more G0 arrest; conditions: reference: sequence is the full UniProt precursor, the tested protein was the secreted form or ectodomain
hTERT-HMEC = assay: as above; conditions: reference: sequence is the full UniProt precursor, the tested protein was the secreted form or ectodomain
[1] = protein concentration 0.0225 µM
[2] = protein concentration 0.03125 µM
[3] = protein concentration 0.3125 µM
[4] = protein concentration 0.0147125 µM
[5] = protein concentration 0.147125 µM
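Further: secreted proteins added to cultured cells, EdU pulse at the end, nuclei found by Hoechst imaging, EdU status from nuclear versus surrounding ring intensity ratio, PBS as neutral control.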

Row | Sequence | percentage of EdU-negative (MCF7; [1]) [%] | percentage of EdU-negative (MCF7; protein concentration 0.225 µM) [%] | percentage of EdU-negative (hTERT-HMEC; [1]) [%] | percentage of EdU-negative (hTERT-HMEC; protein concentration 0.225 µM) [%] | further results
1 | MDRGTLPLAVALLLASCSLSPTSLAETVHCDLQPVGPERGEVTYTTSQVSKGCVAQAPNAILEVHVLFLEFPTGPSQLELTLQASKQNGTWPREVLLVLSVNSSVFLHLQALGIPLHLAYNSSLVTFQEPPGVNTTELPSFPKTQILEWAAERGPITSAAELNDPQSILLRLGQAQGSLSFCMLEASQDMGRTLEWRPRTPALVRGCHLEGVAGHKEAHILRVLPGHSAGPRTVTVKVELSCAPGDLDAVLILQGPPYVSWLIDANHNMQIWTTGEYSFKIFPEKNIRGFKLPDTPQGLLGEARMLNASIVASFVELPLASIVSLHASSCGGRLQTSPAPIQTTPPKDTCSPELLMSLIQTKCADDAMTLVLKKELVAHLKCTITGLTFWDPSCEAEDRGDKFVLRSAYSSCGMQVSASMISNEAVVNILSSSSPQRKKVHCLNMDSLSFQLGLYLSPHFLQASNTIEPGQQSFVQVRVSPSVSEFLLQLDSCHLDLGPEGGTVELIQGRAAKGNCVSLLSPSPEGDPRFSFLLHFYTVPIPKTGTLSCTVALRPKTGSQDQEVHRTVFMRLNIISPDLSGCTSKGLVLPAVLGITFGAFLIGALLTAALWYIYSHTRSPSKREPVVAVAAPASSESSSTNHSIGSTQSTPCSTSSMA | 25.3 ± 2.4 | 27.3 ± 2.9 | 4.75 ± 0.063 | 5.33 ± 0.45 | 
2 | MDRRSRAQQWRRARHNYNDLCPPIGRRAATALLWLSCSIALLRALATSNARAQQRAAAQQRRSFLNAHHRSGAQVFPESPESESDHEHEEADLELSLPECLEYEEEFDYETESETESEIESETDFETEPETAPTTEPETEPEDDRGPVVPKHSTFGQSLTQRLHALKLRSPDASPSRAPPSTQEPQSPREGEELKPEDKDPRDPEESKEPKEEKQRRRCKPKKPTRRDASPESPSKKGPIPIRRH | 27.2 ± 2.3 | 25.8 ± 4.4 | 3.95 ± 0.71 | 5.43 ± 0.11 | 
3 | MDSDETGFEHSGLWVSVLAGLLLGACQAHPIPDSSPLLQFGGQVRQRYLYTDDAQQTEAHLEIREDGTVGGAADQSPESLLQLKALKPGVIQILGVKTSRFLCQRPDGALYGSLHFDPEACSFRELLLEDGYNVYQSEAHGLPLHLPGNKSPHRDPAPRGPARFLPLPGLPPALPEPPGILAPQPPDVGSSDPLSMVGPSQGRSPSYAS [Q9NSA1] |  |  |  |  | percentage of EdU-negative (MCF7; [2]): 25 ± 1.2%; percentage of EdU-negative (MCF7; [3]): 23.9 ± 1.2%; percentage of EdU-negative (hTERT-HMEC; [2]): 4.59 ± 0.26%; percentage of EdU-negative (hTERT-HMEC; [3]): 5.63 ± 0.48%
4 | MDSSREPTLGRLDAAGFWQVWQRFDADEKGYIEEKELDAFFLHMLMKLGTDDTVMKANLHKVKQQFMTTQDASKDGRIRMKELAGMFLSEDENFLLLFRRENPLDSSVEFMQIWRKYDADSSGFISAAELRNFLRDLFLHHKKAISEAKLEEYTGTMMKIFDRNKDGRLDLNDLARILALQENFLLQFKMDACSTEERKRDFEKIFAYYDVSKTGALEGPEVDGFVKDMMELVQPSISGVDLDKFREILLRHCDVNKDGKIQKSELALCLGLKINP | 40.5 ± 16 | 25.7 ± 0.85 | 4.77 ± 0.84 | 5.6 ± 0.67 | 
5 | MDSYLLMWGLLTFIMVPGCQAELCDDDPPEIPHATFKAMAYKEGTMLNCECKRGFRRIKSGSLYMLCTGNSSHSSWDNQCQCTSSATRNTTKQVTPQPEEQKERKTTEMQSPMQPVDQASLPGHCREPPPWENEATERIYHFVVGQMVYYQCVQGYRALHRGPAESVCKMTHGKTRWTQPQLICTGEMETSQFPGEEKPQASPEGRPESETSCLVTTTDFQIQTEMAATMETSIFTTEYQVAVAGCVFLLISVLLLSGLTWQRRQRKSRRTI | 24.6 ± 0.99 | 25.4 ± 1.9 | 4.53 ± 0.75 | 7.02 ± 0.61 | 
6 | MDTIFLWSLLLLFFGSQASRCSAQKNTEFAVDLYQEVSLSHKDNIIFSPLGITLVLEMVQLGAKGKAQQQIRQTLKQQETSAGEEFFVLKSFFSAISEKKQEFTFNLANALYLQEGFTVKEQYLHGNKEFFQSAIKLVDFQDAKACAEMISTWVERKTDGKIKDMFSGEEFGPLTRLVLVNAIYFKGDWKQKFRKEDTQLINFTKKNGSTVKIPMMKALLRTKYGYFSESSLNYQVLELSYKGDEFSLIIILPAEGMDIEEVEKLITAQQILKWLSEMQEEEVEISLPRFKVEQKVDFKDVLYSLNITEIFSGGCDLSGITDSSEVYVSQVTQKVFFEINEDGSEAATSTGIHIPVIMSLAQSQFIANHPFLFIMKHNPTESILFMGRVTNPDTQEIKGRDLDSL |  |  |  |  | percentage of EdU-negative (MCF7; [2]): 24 ± 0.53%; percentage of EdU-negative (MCF7; [3]): 24.9 ± 1.8%; percentage of EdU-negative (hTERT-HMEC; [2]): 4.81 ± 0.69%; percentage of EdU-negative (hTERT-HMEC; [3]): 6.48 ± 0.78%
7 | MDTPRVLLSAVFLISFLWDLPGFQQASISSSSSSAELGSTKGMRSRKEGKMQRAPRDSDAGREGQEPQPRPQDEPRAQQPRAQEPPGRGPRVVPHEYMLSIYRTYSIAEKLGINASFFQSSKSANTITSFVDRGLDDLSHTPLRRQKYLFDVSMLSDKEELVGAELRLFRQAPSAPWGPPAGPLHVQLFPCLSPLLLDARTLDPQGAPPAGWEVFDVWQGLRHQPWKQLCLELRAAWGELDAGEAEARARGPQQPPPPDLRSLGFGRRVRPPQERALLVVFTRSQRKNLFAEMREQLGSAEAAGPGAGAEGSWPPPSGAPDARPWLPSPGRRRRRTAFASRHGKRHGKKSRLRCSKKPLHVNFKELGWDDWIIAPLEYEAYHCEGVCDFPLRSHLEPTNHAIIQTLMNSMDPGSTPPSCCVPTKLTPISILYIDAGNNVVYKQYEDMVVESCGCR [Q6KF10] |  |  |  |  | percentage of EdU-negative (MCF7; [4]): 25.3 ± 1.3%; percentage of EdU-negative (MCF7; [5]): 28.7 ± 2.5%; percentage of EdU-negative (hTERT-HMEC; [4]): 4.28 ± 0.073%; percentage of EdU-negative (hTERT-HMEC; [5]): 5.35 ± 0.57%
